Assays:
Type in all cases: cell-based
[1] = test system: primary rabbit corneal epithelial cells; assay: in vitro wound healing assay (scratch wound), artemin; settings: 100 ng/ml; within 6 h; control about 20%
Method: For in vitro wound healing assays primary corneal epithelial cells and cells from the corneal epithelial cell line were seeded at a density of 5×10^5 onto 60 mm plastic dishes with 2 mm grid (Sarstedt, Numbrecht, Germany) and cultured for 2 days until subconfluency. For experiments with artemin primary cultured rabbit corneal epithelial cells were used. These cells had been isolated with Dispase (1,2 U/ml) and trypsin/EDTA. Rabbit cells had been cultured in medium 500 with additives (Cascade Biologies).
The cell layer was injured under the microscope by inducing several parallel scratches with a soft plastic cell scrubber (Falcon, Becton and Dickinson, Heidelberg, Germany). The tip of the scrubber was cut and measured about 1 mm and consequently the width of the scratch in the cell layer was also about 1 mm. Selected areas in the dishes were marked with a very fine marker pen and consecutive images were taken at different time points at 5×magnification under an inverted phase contrast microscope (Axiovert 25, Zeiss, Jena, Germany) equipped with a video camera. […] For each condition four representative areas were evaluated within three dishes. […] 18 hours later the mean diameter of the same scratch was calculated again and expressed in percent of the diameter at the beginning of the experiment.

[2] = test system: primary rabbit corneal epithelial cells; assay: single cell clonal growth assay (colony formation, clonal proliferation); settings: 250 ng/ml
Text: In order to evaluate the effect of GDNF on corneal proliferation, recombinant human GDNF was used (R&D, Minneapolis, Minn., USA). For the evaluation of the effect on corneal epithelial proliferaton a single cell clonal growth model was utilized which allows to determine the effect of the given growth factor on both colony formation as well as clonal expansion (Kruse et al., 1991). New Zealand white rabbits were housed and treated according to the ARVO Resolution of Animals in Research and under observation of German Federal Laws and the laws of the State of Baden-Württemberg. Prior to sacrifice with an intravenous overdose of pentobarbital, they received an intramuscular injection of xylazine hydrochloride and ketamine hydrochloride. The details of the clonal growth assay are described in Kruse et al. (1991). 5000 viable cells were seeded in each 16 mm dish in serum-free medium MCDB 151 with a supplement (S) of insulin (5 μg/ml), transferrin (5 μg/ml), selenium (5 ng/ml) and hydrocortisone (5 μg/ml) (all from Sigma, Deisenhofen, Germany). […] This quantification was facilitated by the use of dishes which contained a grit on the bottom which is roughly 2 mm wide (from Sarstedt, Newton, N.C., USA). For data collection the entire surface area of four randomly selected dishes for each condition was screened. Furthermore, the number of cells per colony was determined in 75 randomly selected colonies for each condition. Furthermore, the total number of cells/dish was calculated in order to carry out an evaluation for artemin. In order to stimulate the cellular proliferation, GDNF (50 or 200 ng/ml) or artemin (250 ng/ml) was added to the medium. In order to estimate the rate of proliferation after 12 days (a time when neighbouring colonies started to grow into each other and, therefore, prevented numerical quantification) dishes were fixed in −20° C. methanol and stained with methylene blue.
All experiments examining the effect of GDNF on corneal proliferation were performed in triplicate with cells from different donors. The influence of growth factor on colony formation, colony size and cell number was studied using one-way analysis of variance. […] Student's t-test was employed to determine which differences were significant after analysis of variance.

[3] = test system: FAK, Pyk2, cRaf, MEK1, Erk 1 and 2, Elk, RSK; assay: western blot of phosphorylated intracellular signaling proteins in corneal epithelial cells; settings: 250 ng/ml artemin for 10, 20, 40 and 60 minutes; human corneal epithelial cells

B1: artemin: GDNF family member, also referred to as enovin or neublastin (SEQ ID NO 5) (protein)
chain: CRLRSQLVPVRALGLGHRSDELVRFRFCSGSCRRARSPHDLSLASLLGAGALRPPPGSRPVSQPCCRPTRYEAVSFMDVNSTWRTVDRLSATACGC
modifications: artemin
gap in the cell monolayer filled [1]: 29±8%
total number of cells per dish ([2]; control 200±98 cells, p<0.001): significantly increased
total number of colonies ([2]; day 6, control 40±20): 79±38
phosphorylated Erk 1 and 2 [3]: gradually increased
phosphorylated MEK [3]: increasing amount
